Reference: PMC10221975 (Pharmaceutics, 2023)

Target: the molecule itself
Assay: dynamic light scattering; after irradiation of the N2O-saturated solution with 0.1 M NaN3 (oxidation by N3 radicals), 70 μM protein, 25 °C; the species seen are held by covalent bonds (dityrosine)

B1: papain (enzyme, UniProt P00784 134-345, looked up)
chain: IPEYVDWRQKGAVTPVKNQGSCGSCWAFSAVVTIEGIIKIRTGNLNEYSEQELLDCDRRSYGCNGGYPWSALQLVAQYGIHYRNTYPYEGVQRYCRSREKGPYAAKTDGVRQVQPYNEGALLYSIANQPVSVVLEAAGKDFQLYRGGIFVGPCGNKVDHAVAAVGYGPNYILIKNSWGTGWGENGYIRIKRGTGNSYGVCGLYTSSFYPVKN
notes: papain; source: bought: Roth (8933.1), used as received
B1 was tested, and the “stoichiometry N” value was 2.
